Data reported in patent publication US20220243360A1 (ROCHE SEQUENCING SOLUTIONS, published 2022).
No end group written: not given here.

T1: biotin-labeled DsbA (UniProt P0AEG4 20-208, limits assumed, biotin-labeled)
T1 sequence (looked up): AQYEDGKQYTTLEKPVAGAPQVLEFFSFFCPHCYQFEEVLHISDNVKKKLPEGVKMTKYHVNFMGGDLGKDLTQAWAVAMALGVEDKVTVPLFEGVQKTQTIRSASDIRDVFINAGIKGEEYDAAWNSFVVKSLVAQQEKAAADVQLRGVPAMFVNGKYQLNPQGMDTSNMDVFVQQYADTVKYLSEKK


Legend:
[1] = molecular target: T1, biotin-labeled DsbA; experiment: peptide microarray fluorescence (Cy5), peptide on the array, biotin-DsbA in solution
[2] = molecular target: T1, biotin-labeled DsbA; experiment: SPR, Biacore X100, biotin-DsbA on streptavidin chip, peptide as analyte
Protocol: Kinetic analysis of the interaction between the discovered peptides and DsbA was performed using a Biacore XI00. Biotin-labeled DsbA (1 uM) was immobilized on streptavidin coated chip (GE Healthcare) to a target level of 1,000 response units in HBS-P+. […] Fourteen dilutions of peptide from 5000 nM to 0.6 nM in HBS-P+were flowed over the DsbA coated chip in triplicate with a contact time of 120 seconds and a dissociation time of 600 seconds. […] All peptides were amidated on the C-terminus.

[3] = molecular target: T1, biotin-labeled DsbA; experiment: Biacore X100 per the table title, biotin-DsbA on streptavidin chip; paragraph 121 says Biacore or ITC (Duprez 2015)

Binder	SIGNAL INTENSITY [1]	Kd [2]	Kd [3]
VIVGQCLKK-NH2 [VIVGQCLKK-NH2]	282	622 nM	
HNWAAQCLKDQAKL-NH2 [HNWAAQCLKDQAKL-NH2]	1760	88 nM	
WQYENWAITKWQCVK-NH2 [WQYENWAITKWQCVK-NH2]	1430	83 nM	
VIGQCLKN-NH2 [VIGQCLKN-NH2]	588	623 nM	
VILGQCLKQ-NH2 [VILGQCLKQ-NH2]	965	517 nM	
PSPWATCDF-NH2 [PSPWATCDF-NH2]	82		2900 nM
DFWHGETCKVTQFDQ-NH2 [DFWHGETCKVTQFDQ-NH2]	1800	84 nM	
DFWHGDTCKVTQFDQ-NH2 [DsbA_1_WT]	1750	208 nM	
DFWHGEQCKVTQFDQ-NH2 [DFWHGEQCKVTQFDQ-NH2]	4590	53 nM	
YVYGMCWKDYTTDK-NH2 [YVYGMCWKDYTTDK-NH2]	2300	78 nM	
SIIGQCYKKDPSQAT-NH2 [SIIGQCYKKDPSQAT-NH2]		553 nM	
YVYGMCWKDYTDTDK-NH2 [YVYGMCWKDYTDTDK-NH2]	2110	116 nM	
NDYQYKGQQCLDPKY-NH2 [NDYQYKGQQCLDPKY-NH2]	3620	48 nM	
HNWAAQCLNPDQAKL-NH2 [HNWAAQCLNPDQAKL-NH2]	2640	57 nM	
SIIGMCYKKDPS-NH2 [SIIGMCYKKDPS-NH2]	1360	188 nM	
